Measurements as given in PMC5422739.

Columns and labels:
[1] = biological target: LigA on the surface of L. biflexa serovar Patoc ligA
[2] = biological target: tag free LigB12 (amino acids 1,047–1,119 in LigB) (L. interrogans serovar Pomona); test: SPR; Biacore 3000; tag free LigB12 immobilised on CM5 (about 1,000 RU); HTE truncates 0 to 5 μM injected in PBS at 30 μL/min, 25°C; 1:1 Langmuir model
[3] = biological target: tag free LigB12 (amino acids 1,047–1,119 in LigB) (L. interrogans serovar Pomona); test: other fluorescence titration; intrinsic tryptophan fluorescence of LigB12 (2 μM), excitation 295 nm, read at 315 nm, 25°C, PBS; HTE20 or HTE20N titrated 10 to 0.625 μM
[4] = biological target: GST tagged LigB12 (amino acids 1,047–1,119 in LigB) (L. interrogans serovar Pomona); test: ELISA; competitive; 5 μM GST-LigB4 or GST-LigB12 pre-incubated 1 h with HTE17-20, HTE20N or HTE20C (10 to 0.156 μM), then added to WI-38 cell monolayers at 37°C; HRP anti-GST
[5] = biological target: GST tagged LigB4 (amino acids 307–403 in LigB) (L. interrogans serovar Pomona); test: as above
[6] = biological target: tag-free LigB12 mutant D1061N (L. interrogans serovar Pomona); test: ELISA; tag-free LigB12 wild type or point mutants coated (1 μM/well); His tagged HTE20 or HTE20N titrated 0 to 10 μM; anti-His detection
[7] = biological target: tag-free LigB12 mutant D1066A (L. interrogans serovar Pomona); test: as above
[8] = biological target: tag-free LigB12 mutant E1088A (L. interrogans serovar Pomona); test: as above
[9] = biological target: tag-free LigB12 mutant F1054A (L. interrogans serovar Pomona); test: as above
[10] = biological target: LigB12-12-5 chimera (L. interrogans serovar Pomona); test: ELISA; tag-free LigB5/LigB12 and LigB7/LigB10 chimeras and wild-type domains coated (1 μM/well); 5 μM histidine tagged HTE17-20, HTE20 or HTE20N applied; anti-His detection
[11] = biological target: LigB12-5-12 chimera (L. interrogans serovar Pomona); test: as above

B1: HTE20N (the first 27 residues of HTE20, amino acids 358–384 of HTE) (domain or fragment)
chain: GIPGAAVPGVVSPEAAAKAAAKAAKYG
Which inhibition of the adhesion of LigA-expressing L. biflexa (Patoc ligA) to WI-38 cells after pre-incubation with HTE20N, 10 to 0.156 μM; ELISA with hamster anti-L. biflexa sera [1] does the source give for B1 here?
The inhibition of the adhesion of LigA-expressing L. biflexa (Patoc ligA) to WI-38 cells after pre-incubation with HTE20N, 10 to 0.156 μM; ELISA with hamster anti-L. biflexa sera was 58%.

And the Kd [2]?
Its Kd is 780 nM.

And the koff [2]?
Its koff is 0.0021 s⁻¹.

And the kon [2]?
Its kon is 2700 M⁻¹ s⁻¹.

What about the Kd [3] of the same binder?
Its Kd is 820 nM.

And the percent decrease of LigB12 binding to WI-38 cells at the highest concentration [4]?
The percent decrease of LigB12 binding to WI-38 cells at the highest concentration was 51%.

What about the percent decrease of LigB4 binding to WI-38 cells at the highest concentration [5] of the same binder?
Its percent decrease of LigB4 binding to WI-38 cells at the highest concentration is 54%.

B2: histidine tagged HTE20 (domain or fragment)
chain: GIPGAAVPGVVSPEAAAKAAAKAAKYGARPGVGVGGIPTYGVGAGGFPGFGVGVG
Which results are given for B2?
percent of wild-type LigB12 binding [6]: 32%; percent of wild-type LigB12 binding [7]: 26%; Kd [8]: 870 nM; percent of wild-type LigB12 binding [9]: 15%; percent of wild-type LigB12 binding [10]: 90%; percent of wild-type LigB12 binding [11]: 80%

B3: HTE20 (20th exon of human tropoelastin) (domain or fragment)
chain: B2 chain
How did the Kd [2] turn out when B3 was run?
The Kd was 940 nM.

And the koff [2]?
Its koff is 0.0032 s⁻¹.

What about the kon [2] of the same binder?
Its kon is 3400 M⁻¹ s⁻¹.

What about the Kd [3] of the same binder?
The Kd was 970 nM.

B4: histidine tagged HTE20N (domain or fragment)
chain: GIPGAAVPGVVSPEAAAKAAAKAAKYG
How did the percent of wild-type LigB12 binding [6] turn out when B4 was run?
The percent of wild-type LigB12 binding was 32%.

What about the percent of wild-type LigB12 binding [7] of the same binder?
Its percent of wild-type LigB12 binding is 26%.

And the Kd [8]?
Its Kd is 870 nM.

What about the percent of wild-type LigB12 binding [9] of the same binder?
The percent of wild-type LigB12 binding was 15%.

And the percent of wild-type LigB12 binding [10]?
The percent of wild-type LigB12 binding was 90%.

What about the percent of wild-type LigB12 binding [11] of the same binder?
Its percent of wild-type LigB12 binding is 80%.
